Measurements reported in article PMC5966431.
Each block holds one substance with its values, some of them ahead of it.

Key:
Assay in all cases: SEC; Size-exclusion chromatography of the purified His6-tagged recombinant proteins. Column and buffer are not told for these proteins. Dimerization was not detected consistently under the authors' conditions.
[1] = target: Mase04140 (PL17 family alginate lyase, subfamily 2, Alteromonas macleodii) (Alteromonas macleodii)
[2] = target: Pedsa1196 (PL17 family alginate lyase, subfamily 2, Pedobacter saltans) (Pedobacter saltans)
[3] = target: Valg4460 (PL17 family polysaccharide lyase, subfamily 2, Vibrio alginolyticus) (Vibrio alginolyticus)

stoichiometry N [1]: 2
Substance: Mase04140 (PL17 family alginate lyase, subfamily 2, Alteromonas macleodii) (enzyme)

stoichiometry N [2]: 2
Substance: Pedsa1196 (PL17 family alginate lyase, subfamily 2, Pedobacter saltans) (enzyme)

stoichiometry N [3]: 2
Substance: Valg4460 (PL17 family polysaccharide lyase, subfamily 2, Vibrio alginolyticus) (enzyme)
